Measured values published in patent publication US20090130652A1 (CRUCELL HOLLAND B V, published 2009).

B1: CR4354L4261 (antibody, human IgG1, lambda, V domains shown)
VH: QVQLVQSGAEVRKPGASVKVSCKASGYTFTHYYMHWVRQAPGQGLEWMGIINPSGGSTTYAQKLQGRVTMTRDTSTSTVYMELSSLRSEDTAVYYCARDWGSNYVWGSYPKYWGQGTLVTVSS
VL: TQAVLTQPSSASGTPGQRVTISCSGSSPNIGSNNVNWYQQLPGTAPKLLIYSNNQRPSGVPGRFSGSKSGTSASLAISGLQSEDEADYYCAAWDDGLSGNYVFGAGTQLTVLS
B2: CR4354L4335 (antibody, human IgG1, lambda, V domains shown)
VH: B1 VH
VL: TQSVLTQPPSTSGTPGQRVTISCSGSDSNIGSNTVNWYQQLPGMAPKLLIYRNNQRPSGVPDRFSGSKSGTSASLAISGLQSEDEADYFCASWDANLGGPLFGGGTKVTVLG
B3: CR4354L4328 (antibody, human IgG1, lambda, V domains shown)
VH: B1 VH
VL: TQAVLTQPSSVSGTPGQRVTISCSGSSSNIGSNTVNWYQQLPGTAPKLLIYGNNNRPSGVPARFSGSRSGTSASLAISGLRSEDEADYYCAAWDDSLNGPVFGGGTKLTVLG

These binders were tested against WNV strain 385-99 (infectious, as used in the virus neutralization assay) (assay: cell-based or functional assay).

| Binder | Potency (%) in 66% neutralization concentration, VNA |
| --- | --- |
| B1 | 106% |
| B2 | 60% |
| B3 | 286% |
